# Data published in US20140127174A1 (ZEALAND PHARMA A S, published 2014).
# Columns and labels:
# [1] = target: human glucagon-like peptide 1 receptor (GLP-1-R) (human, UniProt P43220 24-463); assay: cell-based or functional assay
# [2] = target: human glucagon receptor (Glucagon-R) (human, UniProt P47871 26-477); assay: cell-based or functional assay
# human glucagon-like peptide 1 receptor (GLP-1-R), sequence (P43220 24-463): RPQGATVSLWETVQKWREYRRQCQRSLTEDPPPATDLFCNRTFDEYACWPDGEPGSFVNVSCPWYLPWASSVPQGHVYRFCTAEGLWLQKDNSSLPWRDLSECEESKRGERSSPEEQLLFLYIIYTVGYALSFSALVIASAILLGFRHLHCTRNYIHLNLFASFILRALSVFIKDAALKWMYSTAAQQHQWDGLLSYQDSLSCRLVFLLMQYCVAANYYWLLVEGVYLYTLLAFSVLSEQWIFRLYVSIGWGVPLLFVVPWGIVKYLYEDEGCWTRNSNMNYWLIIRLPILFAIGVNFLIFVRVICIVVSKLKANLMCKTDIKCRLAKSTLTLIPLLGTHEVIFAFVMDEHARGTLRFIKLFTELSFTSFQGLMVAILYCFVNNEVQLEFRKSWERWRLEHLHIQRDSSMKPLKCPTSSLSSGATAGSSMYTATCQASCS
binder,measurement,setting,value
H-HSQGTFTSDYSLYLDSRRAKDFIEWLERA-NH2 (not fully specified) [L006-0050 (SEQ ID NO: 12)],EC50 of cAMP formation in HEK293 cells expressing human GLP-1-R (corrected to a purity of 50%),[1],0.17 nM
same,EC50 of cAMP formation in HEK293 cells expressing human Glucagon-R (corrected to a purity of 50%),[2],0.1 nM
